Data from the supplement of paper PMC9170038.

Key:
MS2 coat protein [1] = test: apparent KD of MS2 coat protein, switch ON state; designed switch direction (-1 OFF switch, 1 ON switch): -1; higher = weaker reporter binding; conditions: FMN input: 0 or 200 uM; Eterna round: R93 (includes R88 designs)
Procedure, shortened: (§1)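 Normalised binding curves from single clusters were fitted, and the median fit for each design is given as apparent KD. The clusters held designed RNA switches transcribed on-chip from Illumina sequencing clusters. These were titrated with SNAP-549-labelled MS2 coat protein (twofold steps from 0.7 or 1.5 nM to 3 µM, 0.8–1.5 h to 10–20 min per step) in 100 mM Tris-HCl pH 7.5, 80 mM KCl, 4 mM MgCl2, without or with constant ligand.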

MS2 coat protein [2] = test: apparent KD of MS2 coat protein, switch OFF state (with FMN for OFF switches, without FMN for ON switches); designed switch direction (-1 OFF switch, 1 ON switch): -1; higher = weaker reporter binding; conditions: FMN input: 0 or 200 uM; Eterna round: R93 (includes R88 designs)
Procedure, shortened: as §1

| Sequence | apparent KD of MS2 coat protein (MS2 coat protein [1]) [nM] | apparent KD of MS2 coat protein (MS2 coat protein [2]) [nM] |
| --- | --- | --- |
| AAAAAGGCAGGAUAUGCAUACACACAAAAAAAAAAACUGGGACAUGAGGAUCACCCAUGUAGAAGGGCCAAAAA [Dora Explored 8 - Jieux - Exclusion 2] | 151 | 54 |
| AGAUCAUCAGGAUAUACAUAGGUGAAAAAAGUAAAUCCACUACAUGAGGAUCACCCAUGUAGAAGGGAUGAUCA [Ex2 Design 176: Random 4] | 39.1 | 30.3 |
| CAUAAACAUGAGGAUCACCCAUGUGAGGAUAUGAUAUUACUAGGACGGCUGUAAUCAAUCAGAAGGCACAUCAA [JR_Exc--1_Sub1206] | 22.5 | 41.5 |
| AAAAAGUGAGGAUAUACGCUGUGGAGUAGACACAACCAGGCGUAGAAGGCACAUGAGGAUCACCCAUGUCCAAA [EX4 Malc#18] | 23.9 | 44.1 |
| AGUUAGCGAGGAUAUACAUGAGGAUCACCCAUGUGAGAGAAAAAAGUGAGAAAGAAAAGUAGAAGGCGCUAACA [Moding Norbert Elias (73)] | 42.3 | 119 |
| AUGUAGGGAGGAUAUACAUAGAUACAGAUUCGUGUAGAACUACAUGAGGAUCACCCAUGUAGAAGGCCCUAAAA [Mat - Same state - Mayanna Mod - D124] | 20.1 | 43.1 |
| AACAGUACAGGAUAUACAUGAGGAUCACCCAUGUGAAAAUUAAGUGGGAAACCACAGUGUAGAAGGGUACUGAA [Mat - Exclusion 3 - Eli mod - D55] | 120 | 93 |
| CUCAUGUCAGGAUAUCAGUAGUAAAAAAAUAAAAUUACUACUGAGAAGGGACAUGAGGAUCACCCAUGUAAAAA [EX4 363: Super Stable 63] | 16.1 | 23.2 |
| AAGAACGGAGGAUAUACAAAAUAAAAGAAAAGAAAGAAAGAACAUGAGGAUCACCCAUGUAGAAGGCUGAAGAA [Merneferre Ay I] | 35.7 | 35.2 |
| AAGAACUCAGGAUAUACAUGAGGAUCACCCAUGUAAAAGAAAGAAAGGGAAAAGAAAAGUAGAAGGGAGAAGAA [Hedjkheperre-setpenre Nesbanebdjed] | 28.7 | 34.3 |
| AAUAAGUGAGGAUAUCGAAGACUGUCGAAAAGACAGUCGAACGAGAAGGCACAUGAGGAUCACCCAUGUGAGGG [Mat - Exaclusion 4 - Eli mod - D69] | 130 | 107 |
| AGGUAGUCAGGAUAUACAAACAUGUCAAAAGACGUGAAAAAACAUGAGGAUCACCCAUGUAGAAGGGACUACCA [Mat - Exclusion 2 - JL mod - D21] | 18 | 16.3 |
| AAGAAGUGAGGAUAUGUCUGUGCGAAAAAAAAAAAGUGCAGACAGAAGGCACAUGAGGAUCACCCAUGUGGGAA [Florian 65% 6] | 76.6 | 87.2 |
| AAUAAGUGAGGAUAUACUAAAGAAAUGAAAAGGGAUAAAGAACAUGAGGAUCACCCAUGUAGAAGGCACAAUAA ['Aper-'Anat] | 31.9 | 37.2 |
| AAAGGAGCAGGAUAUACAUGAGGAUCACCCAUGUAAAAAACAUAAUAAAAGAACUUAUGUAGAAGGGCUCCAAA [69%, Moding Meechl, 10] | 48.2 | 228 |
| CUCAAGUGAGGAUAUAAAAGAAAAGAAGAGAAAGAAAAGAAUUAGAAGGCACAUGAGGAUCACCCAUGUAAGAA [EteRNA is fun!] | 39.4 | 25.5 |
| AAAAAGGGAGGAUAUGCAUACACAAAAAAAAAAAAAAAAAAACAUGAGGAUCACCCAUGUAGAAGGCCCAAAAA [Dora Explored 3 - Jieux - Exclusion 2] | 37.4 | 28.9 |

| Sequence | apparent KD of MS2 coat protein (MS2 coat protein [1]) [nM] | apparent KD of MS2 coat protein (MS2 coat protein [2]) [nM] |
| --- | --- | --- |
| AAGAAGUCAGGAUAUACAUGAAAGAAAGAAAAGAAAAGAAAACAUGAGGAUCACCCAUGUAGAAGGGACAAGAA [EteRNA is fun!] | 54.5 | 50.5 |
| AAGAAGGCAGGAUAUACAAAAUAAAAGAAAAGAAAGAAAGAACAUGAGGAUCACCCAUGUAGAAGGGCUAAGAA [Merhotepre Ini] | 50.9 | 39.3 |
| GGUUGGCGAGGAUAUACAUGAGGAUCACCCAUGUGAGAGAAAAAAGUGAUAAAGAAAAGUAGAAGGCGCUGACG [salish99-ex3-32] | 120 | 2470 |
| GGAAAACAUGAGGAUCACCCAUGUCAGGAUAUGUGAAAAAAAAAAAAAAGAAAAGAAAACAGAAGGGACAAAAG [amethyst 6] | 80.8 | 23.2 |
| GAAAAGUCAGGAUAUGUACAAAAUAAAAUAAAAAUAAAAGUACAGAAGGGACAUGAGGAUCACCCAUGUAAAAA [Mat - Exclusion 4 - Mayanna - D119] | 47.3 | 49.8 |
| AAAAAGCGAGGAUAUACUAAAAAACCUCAAAAAAAAAAAAAACAUGAGGAUCACCCAUGUAGAAGGCGCAAAAA [JR_Exc002_Sub001] | 86.1 | 113 |
| AAAAUACAUGAGGAUCACCCAUGUGAGGAUAUGCAAAACCCAUAUAAAAAGGGAAAAAGCAGAAGGCACAAAAA [wbt round 1 mod 15] | 33 | 52.9 |
| AAAGAUACAGGAUAUACAUGAGGAUCACCCAUGUUAGACCAAAAAUGGGAAAAAGAAAGUAGAAGGGUAUAAAA [Ex 3 May 35] | 26 | 54.5 |
| AACAUGUCAGGAUAUUAAAGAAAAGAAAAGAAAGAAAAGAAUAAGAAGGGACAUGAGGAUCACCCAUGUAAGAA [EteRNA is fun!] | 72.1 | 37 |
| AAAAAGUGAGGAUAUACAUGAGGAUCACCCAUGUGAAGGGAAGAAAGAAAGAAAGAAAGUAGAAGGCACAAAAA [Default title] | 51.1 | 222 |
| AAAAAGUGAGGAUAUAGCAAAGGUCACGAAAGUGACAAAGGCUAGAAGGCACAUGAGGAUCACCCAUGUCCAAG [Mat - Exclusion 4 - Eli mod - D98] | 28.6 | 56.5 |
| AACAAGACAGGAUAUACAUGAGGAUCACCCAUGUCACAACAAAGCAGCGCAACACAAAGUAGAAGGGUCAUGAA [Ruby 12] | 45.1 | 46.9 |
| AGAAAGCGAGGAUAUGCACGGGAAGAAAGAAGAGAGAAAAAACAUGAGGAUCACCCAUGUAGAAGGUGUAUAAA [JR_Exc002_Sub1713] | 38.4 | 25.8 |
| AACAUGUCAGGAUAUGUAGUAAAAAGUGAUCCUCAUAAACUACAGAAGGGACAUGAGGAUCACCCAUGUAAAAA [Ex4: 930] | 27.9 | 21.3 |
| AAGAAGCAAGGAUAUACAUGAGGAUCACCCAUGUAAAAGAAAGAGGGAAAAGAGAAAAGUAGAAGGUGCAAGAA [Ptolemy VI Philometor] | 22.6 | 54.4 |
| AACUAGUCAGGAUAUGCGAACAGAUAAUAAGCUACACAAAAGCAGAAGGGACAUGAGGAUCACCCAUGUAAAUA [JR_Exc004_Sub502] | 39.3 | 33 |
| CUCAUGUUAGGAUAUUAAUGAAAUGAAGUGAAAGAAAAGAAUAAGAAGGAACAUGAGGAUCACCCAUGUUAGAA [EteRNA is fun!] | 69.3 | 25.2 |
